Results taken from patent US20120270800A1 (published 2012).
Positions of bridges follow the written chain, without caps; N, C: chain ends. Non-standard residues stand in square brackets, D forms with d. No end group written: not given here. S5 = C=CCCC[C@](C)(N)C(=O)O; βAla = NCCC(=O)O

Molecular target: mSin3
Assay: fluorescence polarization

Binder: [βAla]VRRRI[S5]MLL[S5]AANYLER (staple 7-11; also: FITC-conjugated in the assay, site not given here) [SID2]
- Kd: 12 nM
